Columns and labels:
Assay in all cases: ELISA, plate coated with OVA-peptide conjugate, adjuvant-only control egg antibody, dilution not stated
[1] = molecular target: IL-10 Peptide #1 (SEQ ID NO: 1) conjugated to hen ovalbumin (Chicken, quail, turkey; hen) (UniProt P01012)
[2] = molecular target: IL-10 Peptide #3 (SEQ ID NO: 4) conjugated to hen ovalbumin (Chicken, quail, turkey; hen) (UniProt P01012)
[3] = molecular target: IL-10 Peptide #4 (SEQ ID NO: 5) conjugated to hen ovalbumin (Chicken, quail, turkey; hen) (UniProt P01012)

## adjuvant only injected control egg antibody
[1]
  optical density: 0.562 OD at 450 nm
[2]
  optical density: 0.499 OD at 450 nm
[3]
  optical density: 0.6 OD at 450 nm

— patent US20150037277A1
